Earlier results, collected in article PMC7322545.

Columns and labels:
[1] = target: CCL18 (Homo sapiens) (UniProt P55774)
[2] = target: CCL3 (Homo sapiens) (UniProt P10147)
[3] = target: CCL4 (Homo sapiens) (UniProt P13236)

Measured: Kd

Chain of UniProt P55774 (P55774 24-89): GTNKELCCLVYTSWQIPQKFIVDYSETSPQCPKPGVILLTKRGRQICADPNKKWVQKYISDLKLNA
Chain of UniProt P13236 (P13236 24-92): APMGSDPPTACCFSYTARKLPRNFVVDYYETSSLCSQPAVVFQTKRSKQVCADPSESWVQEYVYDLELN
Chain of UniProt P10147 (P10147 24-92): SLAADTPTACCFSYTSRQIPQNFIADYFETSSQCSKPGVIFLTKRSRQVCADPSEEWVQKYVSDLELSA

EVA-1 (from UniProt P0C8E7)
< 5 nM: [1] | [2] | [3]
